# ± gives the half width of the 95% confidence interval.
# Tests used:
# [1] = folding stability dG unfold from trypsin proteolysis; higher = more stable
# How it was run: (§1)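 Designed mini-proteins (under 80 residues, no cysteine) in a PA-tagged cDNA display construct were digested with trypsin and chymotrypsin. Each protease was used at 11 concentrations (threefold dilutions) plus a no-protease condition, followed by sequencing. K50 was inferred by Bayesian fitting of sequencing counts, and unfolding free energy was derived against a sequence-predicted unfolded-state K50 and a shared folded-state K50, per protease or combined. Only designs with AlphaFold2 dimer inter-PAE above 15 were kept.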
# [2] = folding stability dG unfold from chymotrypsin proteolysis; higher = more stable
# How it was run: as §1
# [3] = folding stability dG unfold (combined trypsin and chymotrypsin); higher = more stable
# How it was run: as §1
Sequence,folding stability dG unfold [1] [kcal/mol],folding stability dG unfold [2] [kcal/mol],folding stability dG unfold [3] [kcal/mol]
SAGGSAGGGPPNAPLKIYTDDGSVNLLNLDGQPLLVTVHPDATAEITLPDGTKITVPIPPGANLSAGGSAGG [r6_105_TrMRF],1.26 ± 0.072,0.628 ± 0.054,0.977 ± 0.069
SAGPPKTRTVMFPPEDIPKILEELKKLPPDITIHFPDPDPGNWFMIEVTDDEIKIENPGNGEERTIPISAGG [r19_154_TrROS],-0.712 ± 0.24,0.252 ± 0.11,0.0412 ± 0.16
SAGGSRTVLLYDPDNPRPYIVEYDPATGTLRIYDPETGELVAEFPIPDLKDIEAPVVPNGILLGAIVDSAGG [r13_720_TrMRF],1.03 ± 0.023,1.998 ± 0.018,1.68 ± 0.075
SAGGSAGGSAGGGMTVLSFTMPKEEVEKYFEEKGLDATEMTISPGPGDTYSVTVLDPGSSAGGSAGGSAGGS [r10_999_JUSTAS],0.33 ± 0.089,-0.0653 ± 0.17,0.151 ± 0.12
PLTFPALVRNPLEDRWEEVTVTLHPDGTLTVTHRGRPLASVRVVTRPPPEVELVPVRDADGVERLGLRTRGS [r1_496_TrMRF],0.346 ± 0.071,1.21 ± 0.08,0.964 ± 0.074
SAGGWHTIQINVRRPGKPITPEKIKEALREAYPGYPIEVEDINPEDGRITITVPENAMPRIKEALMKSAGGS [r8_235_TrROS],1.06 ± 0.041,0.896 ± 0.076,1.01 ± 0.11
SAGGSAGGSMPPLAPDETVTQTLPSPDGSEVLVTYTWVPGEGLVETKVTDPATGKTTSTKTPVPSAGGSAGG [r6_440_JUSTAS],0.0545 ± 0.067,-0.521 ± 0.31,-0.0833 ± 0.16
SALWVIKDTIKPPNGKKRKISIAIPNDGLYVWFNGGSFPIPLKEIKKIMENFPGYQIDDIEIMPLDELKSAG [r14_336_TrROS],0.798 ± 0.19,-0.15 ± 0.53,0.448 ± 0.32
SAGGSAGGSAGKKIKYRITIYNKKTGKTIEIEIEMSEDEIKKIAEELAKKYNVKIKIEPVSAGGSAGGSAGG [r11_515_TrROS_Hall],3.71 ± 0.13,4.79 ± 0.13,4.56 ± 0.18
SAGGSAGGSAGSPVVTTEKVKTEGNTTVYRVTEPALNTETLVTEDAGANPTIKTTTYNTPSAGGSAGGSAGG [r11_738_JUSTAS],-0.955 ± 0.21,-0.937 ± 0.83,-0.747 ± 0.24
SAGGSAGGSAGKIKIKNEDGSEYEVKKIEITIKNENGEKKKIKLEIELPKAKEVKIEKKKSAGGSAGGSAGG [r11_804_TrROS_Hall],-1.2 ± 0.83,0.32 ± 0.087,-0.13 ± 0.29
NWYIDIDEIKEAINDAPPGDEVELPFKFYDPDDGQKFKFRVTVEVNPNGKLTSVRIQHPGSGKPHAEINLKS [r1_165_TrROS],0.636 ± 0.07,1.25 ± 0.13,0.982 ± 0.11
SAGGSSSSLIGEIKLPSNVTIKIERSSKGVRTAVVTFPETGKVVTLPLDPNVSIEEIIEKVKEIVEKKSAGG [r13_624_JUSTAS],2.06 ± 0.093,1.29 ± 0.043,1.71 ± 0.066
SAGGSAGGSMPVVVEPTTIGDIEVTRVVLPDGTVVVYTKAPTTLKVTYRPLATGEEEEEVFPELSAGGSAGG [r6_555_JUSTAS],1.01 ± 0.011,0.829 ± 0.11,1.01 ± 0.056
SAGGSAGGSFFIRVEYPKGKTRTYPIKNGPIEEALEQLPPGWDNVKVSIYNGNKPVEFEIPLPSAGGSAGGS [r12_767_TrROS],0.389 ± 0.13,1.1 ± 0.074,0.806 ± 0.091
SAGKISSIDISPFKLPDGSYPYLLRVSFPDLGTEVDFIFPAKPSDAINFAKELRKSLPNIPLTFSNISSAGG [r19_317_TrMRF],1.94 ± 0.05,1.89 ± 0.11,1.87 ± 0.11

Sequence,folding stability dG unfold [1] [kcal/mol],folding stability dG unfold [2] [kcal/mol],folding stability dG unfold [3] [kcal/mol]
SAGGEEVVEEPPPPEVEVIEIRDAETDRTVTLVYNKDTGKLFLFDEDTGLVYEFDVDGRLVRVERLPPSAGG [r13_101_TrROS_Hall],2.95 ± 0.26,4.48 ± 0.1,4.16 ± 0.39
SAGGSLRQLIRALFKKKGIPIEPEKVDPNWVTFKVPNKDVKIDLPDGNKIEIKPNGYVRIRIPPDDLSAGGS [r8_297_TrROS],-0.172 ± 0.68,-0.354 ± 0.89,-0.1 ± 0.4
SAGGSAGGMVKVYPIDPNTPPEAVVARLEKEFPDRPIKSVSVSTVGDVPVVTITFPDGLKVVVSSAGGSAGG [r6_492_JUSTAS],0.975 ± 0.029,1.43 ± 0.03,1.23 ± 0.072
TPLTTSTTTVPPSEIATPVTFNAPLSPDTSVTITTYDSATGTTSPVFSTTSASVTLTDLPNVSTATVVVVSS [r1_224_JUSTAS],0.702 ± 0.018,-0.255 ± 0.23,0.459 ± 0.068
SAAVPSDLTLTTLETKKEKFDDNEYTVVKSVLLRPGAPGATVTEYTTVYKGDKVVETKPSERTVSPALLSAG [r14_651_JUSTAS],-0.897 ± 0.27,0.209 ± 0.13,-0.0404 ± 0.15
SAGGAPVSVSTSTLPDGRTVTTTTYPSGSTTTTITDPVTGATATASSPGSGTTTFTDPATGATTVVGSAGGS [r16_91_JUSTAS],1.36 ± 0.053,0.635 ± 0.029,1.02 ± 0.065
SAGGEWHEISIKFPNPEEIEEALREAFPPGMDVDPDVEPNPNGWEVEIEVPRNNPDRVQNAIKEALDSAGGS [r16_43_TrROS],0.452 ± 0.035,0.469 ± 0.031,0.492 ± 0.11
SAGGSAGGSAGKTIVLKTPEAIKNLKEGDVIKLKDGKKYKIVKVEYDKETNYFTIEIEKESAGGSAGGSAGG [r11_316_TrROS_Hall],2.96 ± 0.13,3.75 ± 0.17,3.54 ± 0.17
SAGGSAGGSAVSPDETVPIKIDGKEVTVTFNGSKATITFPDGTVIEGTVSTEGSKLTLDLNLSAGGSAGGSA [r18_172_JUSTAS],1.74 ± 0.053,1.26 ± 0.059,1.46 ± 0.13
SAMKETEIPDPVTGNTYTVIDFDDATVVIKNYPDSLTITIIPPPSNTSTTIPMKPGEEEKVLKELGIPPSAG [r14_4_JUSTAS],0.591 ± 0.087,0.316 ± 0.23,0.568 ± 0.16
SAGGSAGGSAGGMPLVRIEVTNENGEKFTFIFESEEEAKAAAEALGVDVKIEKIPPGEEISAGGSAGGSAGG [r7_456_TrROS_Hall],2.54 ± 0.17,3.25 ± 0.085,2.92 ± 0.14
SAPAVLLEEPDTLVEVEKLPDGSLLIRRVTKFPDGSVTVEISVIYPGGSLSVLESVTLNVPPEEPLPLLSAG [r14_42_JUSTAS],2.42 ± 0.054,1.46 ± 0.051,1.91 ± 0.073
SAGGSAMLVVADDPEVVRELVEPLFPDGEPVLVVGATEEEAAKLVEELKKKGLPFKVVVVRRPDRPSAGGSA [r15_567_TrMRF],0.932 ± 0.048,-0.039 ± 0.23,0.657 ± 0.14
SAGMDFPESYTPIASNGKTLVFKSPTEVYIVLYSPEGGSEVRSFTPGDESVLNPFLEELKKSDYVNLNISAG [r14_12_JUSTAS],0.695 ± 0.028,1.1 ± 0.087,0.995 ± 0.093
SAGGGWKPIGKEEITLPFGIKVTVDIWTWPDGMIMIMIEIEIPVPPPKPPVPPMSPEDMKDMNEDNGSAGGS [r16_6_TrROS],2.06 ± 0.14,3.8 ± 0.24,3.2 ± 0.43
